These are literature values, as cited in patent publication US20220370374A1, “TRANSDERMAL ABSORPTION-TYPE PATCH” (KYUSHU UNIVERSITY, NATIONAL UNIVERSITY CORPORATION, priority 2019, published 2022).

Like-named read-outs stand apart in the source and are kept apart here.

With `C[C@@H](O)[C@@H]1NC(=O)[C@H](CCCCN)NC(=O)[C@@H](Cc2c[nH]c3ccccc23)NC(=O)[C@H](Cc2ccccc2)NC(=O)[C@@H](NC(=O)[C@H](N)Cc2ccccc2)CSSC[C@@H](C(=O)N[C@H](CO)[C@@H](C)O)NC1=O` [Octreotide acetate], the solubility result is listed as “freely soluble” (in ethanol, acetic acid, or N-methylpyrrolidone) and “Extremely soluble” (in water).
Take Leuprorelin: the solubility entry is “slightly insoluble” (in ethanol), “soluble” (in methanol) and “freely soluble” (in water or acetic acid).
